Test [1] deals with Lhcb1,2 (major components of LHCII trimers). The test can be described thus: native gel or EMSA; BN-PAGE of purified LHCII trimers (3 μg of Chl) solubilized in 0.3, 0.6 and 1% α-DDM.
Test [2] shares this target. Description: native gel or EMSA; BN-PAGE (4-12.5%) followed by Tricine-SDS PAGE (2D-PAGE), Coomassie; isolated thylakoids, 8 μg Chl, 0.5 mg/ml Chl in 25 mM BisTris/HCl pH 7.0, 20% glycerol, solubilized with 1% α-DDM (0.6 and 1.5% as controls); plants grown under GL200, GL600, GL1800 or shifted 0.5, 2, 6 h to GL1800.
For test [3], the target named is Photosystem II core (C) (Arabidopsis thaliana (endogenous in leaf thylakoids)) (UniProt P83755). The description is as above.

As to “Lhcb1,2 (major components of LHCII trimers)”, the stoichiometry N in test [1] and in test [2] was 3 throughout.

For “Photosystem II core (C) (from UniProt P83755 1-344; P56761 1-353; P56777 1-508; P56778 15-473; P23321 86-332) (complex)”, the stoichiometry N in test [3] stood at 2.

The values are drawn from article PMC4756287.
